Activity data for one molecule are collected here from US20250092426, “CAS ENDONUCLEASES AND RELATED METHODS” (Flagship Pioneering Innovations VII, LLC, published 2025).

The target in this data set is T1, CasEnd-2 (synthetic construct).
T1 chain: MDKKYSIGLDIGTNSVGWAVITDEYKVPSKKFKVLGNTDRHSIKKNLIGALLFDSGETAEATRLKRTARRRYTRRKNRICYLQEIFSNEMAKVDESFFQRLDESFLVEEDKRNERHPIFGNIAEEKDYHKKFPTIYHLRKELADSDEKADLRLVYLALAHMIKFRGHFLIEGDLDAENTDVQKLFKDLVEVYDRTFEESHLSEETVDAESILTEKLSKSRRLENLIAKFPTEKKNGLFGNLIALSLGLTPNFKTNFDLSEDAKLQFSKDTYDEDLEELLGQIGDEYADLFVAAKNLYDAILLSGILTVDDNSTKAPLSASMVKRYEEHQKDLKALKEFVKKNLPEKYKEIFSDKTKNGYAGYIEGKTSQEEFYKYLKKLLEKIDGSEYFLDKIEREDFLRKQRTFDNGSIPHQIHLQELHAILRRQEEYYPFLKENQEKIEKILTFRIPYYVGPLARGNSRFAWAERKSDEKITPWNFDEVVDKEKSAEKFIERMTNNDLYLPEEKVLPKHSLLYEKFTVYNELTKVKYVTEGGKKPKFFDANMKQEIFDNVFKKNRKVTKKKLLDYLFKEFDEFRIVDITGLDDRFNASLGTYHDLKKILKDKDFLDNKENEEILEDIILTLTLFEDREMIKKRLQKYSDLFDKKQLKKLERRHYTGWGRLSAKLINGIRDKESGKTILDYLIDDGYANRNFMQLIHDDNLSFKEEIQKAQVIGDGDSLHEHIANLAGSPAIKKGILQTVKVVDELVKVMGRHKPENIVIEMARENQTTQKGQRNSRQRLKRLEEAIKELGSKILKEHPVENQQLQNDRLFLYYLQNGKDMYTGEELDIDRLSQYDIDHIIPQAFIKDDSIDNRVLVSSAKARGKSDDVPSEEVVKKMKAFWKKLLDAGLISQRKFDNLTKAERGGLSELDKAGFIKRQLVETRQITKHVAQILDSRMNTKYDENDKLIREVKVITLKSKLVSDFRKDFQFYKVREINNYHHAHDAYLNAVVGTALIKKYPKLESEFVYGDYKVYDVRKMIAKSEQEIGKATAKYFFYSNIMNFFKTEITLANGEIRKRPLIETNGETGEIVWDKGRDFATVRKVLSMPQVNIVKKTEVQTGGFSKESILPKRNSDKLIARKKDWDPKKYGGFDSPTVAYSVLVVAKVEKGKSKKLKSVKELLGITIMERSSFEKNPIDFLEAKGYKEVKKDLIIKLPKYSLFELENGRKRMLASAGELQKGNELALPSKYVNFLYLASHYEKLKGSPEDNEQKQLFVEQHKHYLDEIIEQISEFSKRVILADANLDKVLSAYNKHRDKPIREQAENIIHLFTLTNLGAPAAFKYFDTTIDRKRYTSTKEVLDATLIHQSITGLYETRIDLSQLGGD
The experiment in a line: cell_activity; +++; HEK293T; PAM not stated. Summed up:
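Editing activity was scored as the fraction of GFP+ cells on day 4 by flow cytometry. BFP-expressing HEK293T cells (250,000) received by nucleofection 200 ng plasmid for the RT-Cas fusion protein and 200 ng template RNA plasmid designed to convert BFP to GFP.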

B1: BFP-to-GFP template RNA ; BFP reporter protospacer (ssRNA ; dsDNA)
RNA: GCCGAAGCACUGCACGCCGUGUUUUAGAGCUAGAAAUAGCAAGUUAAAAUAAGGCUAGUCCGUUAUCAACUUGAAAAAGUGGCACCGAGUCGGUGCACCCUGACGUACGGCGUGCAGUGCUU
DNA 1: GCCGAAGCACTGCACGCCGT
DNA 2: ACGGCGTGCAGTGCTTCGGC
For the molecule B1, the activity is ≥ 100 % of reference.
